{"source": "paper PMC12412652", "about": "(2025)", "test_in_all_cases": "BLI", "key": {"[1]": {"biological_target": "T1, BCL-W (Homo sapiens)", "T1 chain": "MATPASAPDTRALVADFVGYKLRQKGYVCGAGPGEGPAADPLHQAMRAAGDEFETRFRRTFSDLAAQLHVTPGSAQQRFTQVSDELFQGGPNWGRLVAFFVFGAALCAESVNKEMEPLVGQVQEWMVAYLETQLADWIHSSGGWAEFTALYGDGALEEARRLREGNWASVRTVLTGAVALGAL"}, "[2]": {"biological_target": "BCL-XL (Homo sapiens)", "sequence (chain, as listed by the source)": "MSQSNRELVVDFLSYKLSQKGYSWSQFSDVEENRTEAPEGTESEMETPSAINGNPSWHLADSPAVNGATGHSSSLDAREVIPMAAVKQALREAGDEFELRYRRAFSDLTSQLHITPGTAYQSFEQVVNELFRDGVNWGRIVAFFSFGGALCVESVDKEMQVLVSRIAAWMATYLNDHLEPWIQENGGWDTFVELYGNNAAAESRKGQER"}, "[3]": {"biological_target": "T2, MCL-1 (Homo sapiens)", "T2 chain": "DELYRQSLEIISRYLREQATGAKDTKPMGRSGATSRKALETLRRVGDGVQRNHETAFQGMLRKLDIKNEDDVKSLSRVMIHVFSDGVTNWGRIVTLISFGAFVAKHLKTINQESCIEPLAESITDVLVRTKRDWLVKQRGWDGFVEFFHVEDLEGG"}, "[4]": {"biological_target": "MBP-BAX 1-166 C62S C126S, biotinylated (Avi tag, 6-histidine tag) (human, UniProt Q07812 1-166, C62S | C126S, biotin on the Avi tag (enzymatic, BirA))", "sequence (Q07812 1-166 C62S/C126S)": "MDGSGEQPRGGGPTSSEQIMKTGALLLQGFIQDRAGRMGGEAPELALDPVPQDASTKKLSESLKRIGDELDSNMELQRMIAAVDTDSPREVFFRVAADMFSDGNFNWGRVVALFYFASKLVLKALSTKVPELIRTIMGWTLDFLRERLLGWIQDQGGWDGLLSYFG"}, "[5]": {"biological_target": "T3, BFL-1 (UniProt Q16548 1-175, biotin)", "T3 chain": "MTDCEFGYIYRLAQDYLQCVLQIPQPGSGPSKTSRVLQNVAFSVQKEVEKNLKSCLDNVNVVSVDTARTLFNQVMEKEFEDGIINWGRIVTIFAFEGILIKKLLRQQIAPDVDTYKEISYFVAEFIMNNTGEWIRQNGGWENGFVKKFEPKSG"}, "[6]": {"biological_target": "T4, BCL-B (Homo sapiens)", "T4 chain": "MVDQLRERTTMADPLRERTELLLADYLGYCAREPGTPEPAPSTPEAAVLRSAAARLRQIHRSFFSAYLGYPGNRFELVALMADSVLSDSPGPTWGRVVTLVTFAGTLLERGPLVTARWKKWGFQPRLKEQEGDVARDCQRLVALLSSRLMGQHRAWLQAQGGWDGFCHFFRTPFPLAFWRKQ"}, "[7]": {"biological_target": "BCL-2 (UniProt P10415 1-239, biotin)", "sequence (P10415 1-207)": "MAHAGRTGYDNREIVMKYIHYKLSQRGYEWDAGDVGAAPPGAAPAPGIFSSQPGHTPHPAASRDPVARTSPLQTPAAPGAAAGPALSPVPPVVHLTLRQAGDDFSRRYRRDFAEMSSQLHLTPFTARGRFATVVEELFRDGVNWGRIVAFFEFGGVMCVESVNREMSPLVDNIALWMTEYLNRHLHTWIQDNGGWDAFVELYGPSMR"}}, "data": [{"binder": "αBAK1 (designed binder, biotinylated for BLI (Avi tag). Limits not printed in the text (constructs as in cited earlier work); the soluble form lacking the C-terminal tail is taken by convention. Any solubility mutations are not stated) GADPKKVLDKAKDQMENVVRKLKQILEELAKEARKLDLTQDEKIELILRYIVAHLAAIGDIEEAIREAKEEADKLKKAGLVNSQQLDEFKRRLEELHKEADRKRRDYAEEFRNKLEYG", "values": [{"measurement": "Kd", "setting": "[1]", "result": 9550, "unit": "nM"}]}, {"binder": "αBAK1 (designed binder, biotinylated for BLI (Avi tag). Limits not given; the soluble form lacking the transmembrane segment (210-226) is taken by convention. Any loop deletion is not stated) GADPKKVLDKAKDQMENVVRKLKQILEELAKEARKLDLTQDEKIELILRYIVAHLAAIGDIEEAIREAKEEADKLKKAGLVNSQQLDEFKRRLEELHKEADRKRRDYAEEFRNKLEYG", "values": [{"measurement": "Kd", "setting": "[2]", "result": 100000, "unit": "nM"}]}, {"binder": "αBAK2 (designed binder, biotinylated for BLI (Avi tag). Limits not given; the soluble form lacking the transmembrane segment (210-226) is taken by convention. Any loop deletion is not stated) GADPKKVLDKADDQMENVVVTLKQELEELAKERRKLDLTQSEKIELKLRYIVAHLAAIGDIEEAIREAKEEADKLKKAGLVNSQQFAEFKRRLEELHKEADRKRRDYAEEFRNKLEYG", "values": [{"measurement": "Kd", "setting": "[2]", "result": 5700, "unit": "nM"}]}, {"binder": "αBAK1 (designed binder, biotinylated for BLI (Avi tag). Limits not given; the conventional BCL-2-fold core 172-327 is taken) GADPKKVLDKAKDQMENVVRKLKQILEELAKEARKLDLTQDEKIELILRYIVAHLAAIGDIEEAIREAKEEADKLKKAGLVNSQQLDEFKRRLEELHKEADRKRRDYAEEFRNKLEYG", "values": [{"measurement": "Kd", "setting": "[3]", "result": 500, "unit": "nM"}]}, {"binder": "αBAK1 (designed binder) GADPKKVLDKAKDQMENVVRKLKQILEELAKEARKLDLTQDEKIELILRYIVAHLAAIGDIEEAIREAKEEADKLKKAGLVNSQQLDEFKRRLEELHKEADRKRRDYAEEFRNKLEYG", "values": [{"measurement": "Kd", "setting": "[4]", "result": 10000, "unit": "nM"}, {"measurement": "Kd", "setting": "[5]", "result": 1700, "unit": "nM"}]}, {"binder": "αBAK1 (designed binder, biotinylated for BLI (Avi tag). Limits not given; the soluble form lacking the transmembrane segment (183-200) is taken by convention) GADPKKVLDKAKDQMENVVRKLKQILEELAKEARKLDLTQDEKIELILRYIVAHLAAIGDIEEAIREAKEEADKLKKAGLVNSQQLDEFKRRLEELHKEADRKRRDYAEEFRNKLEYG", "values": [{"measurement": "Kd", "setting": "[6]", "result": 12000, "unit": "nM"}]}, {"binder": "αBAK2 (designed binder, biotinylated for BLI (Avi tag). Limits not given; the conventional BCL-2-fold core 172-327 is taken) GADPKKVLDKADDQMENVVVTLKQELEELAKERRKLDLTQSEKIELKLRYIVAHLAAIGDIEEAIREAKEEADKLKKAGLVNSQQFAEFKRRLEELHKEADRKRRDYAEEFRNKLEYG", "values": [{"measurement": "Kd", "setting": "[3]", "result": 310, "unit": "nM"}]}, {"binder": "αBAK2 (designed binder, biotinylated for BLI (Avi tag). Limits not printed in the text (constructs as in cited earlier work); the soluble form lacking the C-terminal tail is taken by convention. Any solubility mutations are not stated) GADPKKVLDKADDQMENVVVTLKQELEELAKERRKLDLTQSEKIELKLRYIVAHLAAIGDIEEAIREAKEEADKLKKAGLVNSQQFAEFKRRLEELHKEADRKRRDYAEEFRNKLEYG", "values": [{"measurement": "Kd", "setting": "[1]", "result": 5000, "unit": "nM"}]}, {"binder": "αBAK2 (designed binder) GADPKKVLDKADDQMENVVVTLKQELEELAKERRKLDLTQSEKIELKLRYIVAHLAAIGDIEEAIREAKEEADKLKKAGLVNSQQFAEFKRRLEELHKEADRKRRDYAEEFRNKLEYG", "values": [{"measurement": "Kd", "setting": "[4]", "result": "> 9000", "unit": "nM"}, {"measurement": "Kd", "setting": "[7]", "result": 133, "unit": "nM"}, {"measurement": "Kd", "setting": "[5]", "result": 960, "unit": "nM"}]}, {"binder": "BAK-CDP02 (BAK-targeting computationally designed protein 02 of 11) (designed binder) GADPKKVLDKAKDQAENVVRKLKQILEELYKEARKLDLTQDEKIELILRYIAAMLAAIGDILEAIRQAKEEADKLKKAGLVNSQQLDELKRRLEELRKEAARKARDYAEEFRNKLEYG", "values": [{"measurement": "Kd", "setting": "[7]", "result": 130, "unit": "nM"}, {"measurement": "Kd", "setting": "[5]", "result": 10, "unit": "nM"}]}, {"binder": "BAK-CDP02 (BAK-targeting computationally designed protein 02 of 11) (designed binder, biotinylated for BLI (Avi tag). Limits not given; the soluble form lacking the transmembrane segment (210-226) is taken by convention. Any loop deletion is not stated) GADPKKVLDKAKDQAENVVRKLKQILEELYKEARKLDLTQDEKIELILRYIAAMLAAIGDILEAIRQAKEEADKLKKAGLVNSQQLDELKRRLEELRKEAARKARDYAEEFRNKLEYG", "values": [{"measurement": "Kd", "setting": "[2]", "result": 30000, "unit": "nM"}]}, {"binder": "BAK-CDP02 (BAK-targeting computationally designed protein 02 of 11) (designed binder, biotinylated for BLI (Avi tag). Limits not given; the soluble form lacking the transmembrane segment (183-200) is taken by convention) GADPKKVLDKAKDQAENVVRKLKQILEELYKEARKLDLTQDEKIELILRYIAAMLAAIGDILEAIRQAKEEADKLKKAGLVNSQQLDELKRRLEELRKEAARKARDYAEEFRNKLEYG", "values": [{"measurement": "Kd", "setting": "[6]", "result": 200, "unit": "nM"}]}, {"binder": "BAK-CDP02 (BAK-targeting computationally designed protein 02 of 11) (designed binder, biotinylated for BLI (Avi tag). Limits not printed in the text (constructs as in cited earlier work); the soluble form lacking the C-terminal tail is taken by convention. Any solubility mutations are not stated) GADPKKVLDKAKDQAENVVRKLKQILEELYKEARKLDLTQDEKIELILRYIAAMLAAIGDILEAIRQAKEEADKLKKAGLVNSQQLDELKRRLEELRKEAARKARDYAEEFRNKLEYG", "values": [{"measurement": "Kd", "setting": "[1]", "result": 800, "unit": "nM"}]}, {"binder": "BAK-CDP02 (BAK-targeting computationally designed protein 02 of 11) (designed binder, biotinylated for BLI (Avi tag). Limits not given; the conventional BCL-2-fold core 172-327 is taken) GADPKKVLDKAKDQAENVVRKLKQILEELYKEARKLDLTQDEKIELILRYIAAMLAAIGDILEAIRQAKEEADKLKKAGLVNSQQLDELKRRLEELRKEAARKARDYAEEFRNKLEYG", "values": [{"measurement": "Kd", "setting": "[3]", "result": 5.4, "unit": "nM"}]}]}
